Data on two molecules can be found in article PMC10927090, “Plasmodium falciparum contains functional SCF and CRL4 ubiquitin E3 ligases, and CRL4 is critical for cell division and membrane integrity” (PLOS Pathogens, 2024).

For test [1], the target named is T1, GST-tagged C-terminal of PfCullin-1 (601-829 aa) (P. falciparum, UniProt Q8IAU5 601-829).
T1 construct: P. falciparum Cullin-1 (PfCullin-1, PF3D7_0811000), C-terminal coding region, residues 601-829, amplified from cDNA, in pGEX-6P-1; also called GST/Cul1C; GST/PfCul1C; source: E. coli BL21(DE3), purified (glutathione agarose, native conditions); not shown: GST, N-terminal, kept
T1 sequence (looked up): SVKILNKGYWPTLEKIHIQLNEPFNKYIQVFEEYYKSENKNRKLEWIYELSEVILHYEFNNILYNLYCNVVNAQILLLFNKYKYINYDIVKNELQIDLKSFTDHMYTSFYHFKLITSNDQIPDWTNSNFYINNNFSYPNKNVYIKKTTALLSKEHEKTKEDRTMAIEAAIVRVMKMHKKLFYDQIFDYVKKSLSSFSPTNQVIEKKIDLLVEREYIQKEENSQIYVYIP
The test can be described thus: far-Western, overlay or dot blot; dot blot protein overlay: different amounts of HisSkp, HisSUMO/Rbx or HisSUMO spotted on nitrocellulose, blocked (3% BSA in PBS-T), overlaid with 10 μg of GST or GST-tagged protein for 12 h at 4°C, detected with anti-GST antibodies. Conditions: both partners purified.

For test [2], the target named is T2, GST-tagged N-terminal of PfCullin-1 (1-300 aa) (P. falciparum, UniProt Q8IAU5 1-300).
T2 construct: P. falciparum Cullin-1 (PfCullin-1, PF3D7_0811000), N-terminal coding region, residues 1-300, in pGEX-6P-1; also called GST/Cul1N; GST/PfCul1N; source: E. coli BL21(DE3), purified (glutathione agarose, native conditions); not shown: GST, N-terminal, kept
T2 sequence (looked up): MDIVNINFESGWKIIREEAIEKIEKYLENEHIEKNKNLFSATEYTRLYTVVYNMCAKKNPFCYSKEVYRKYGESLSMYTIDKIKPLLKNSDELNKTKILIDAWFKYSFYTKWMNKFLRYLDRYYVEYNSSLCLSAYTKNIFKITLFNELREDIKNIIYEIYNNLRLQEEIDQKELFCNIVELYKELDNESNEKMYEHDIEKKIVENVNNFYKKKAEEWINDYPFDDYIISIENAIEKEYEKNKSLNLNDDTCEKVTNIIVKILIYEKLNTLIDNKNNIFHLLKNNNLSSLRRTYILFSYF
The test is described as above. Conditions: both partners purified.

B1: 6×His/SUMO-tagged PfRbx1 (natural protein, P. falciparum, UniProt O77367 1-107, looked up)
chain: MADNITNDKRDIFKIHKWSAVAAWSWDISVDNCAICRNHIMDLCIECQAKTTDHENDKDKKIDKEGCTVAWGVCNHAFHLHCISRWIKARQVCPLDNTTWEFQKATD
notes: P. falciparum Rbx1 (PfRbx1, PF3D7_0319100), complete coding region, subcloned into pSMO; also called HisSUMO/Rbx; HisSUMO/PfRbx1; source: E. coli Rosetta-gami 2(DE3) pLysS, purified (Ni-NTA, native conditions); not shown: His6, N-terminal, kept; SUMO, N-terminal, kept
In the case of B1, the binding result in test [1] is on record as “binds”.

B2: 6×His-tagged PfSkp1 (natural protein, P. falciparum, UniProt Q8ID38 1-162, looked up)
chain: MKNDKIKLVSFEGDEFIVDKNTASMSTVIMNILEVMTAEEDTIPLPNIKTPILKKIIEYMEYHINNPADEIPKPLITSNLQDVVSSWDFDFVNTDKETLYELIEASNYLDIKPLLDLTCGKIASMMKDKTTEEIRAEFDIVNDFTREEEKQIREENRWCGDI
notes: P. falciparum Skp1 (PfSkp1, PF3D7_1367000), complete coding region amplified from genomic DNA, in pET28a; also called HisSkp; HisPfSkp1; source: E. coli Rosetta-gami 2(DE3) pLysS, purified (Ni-NTA, native conditions); not shown: His6, N-terminal, kept
For B2, the binding result in test [2] is “binds”.
